According to paper PMC7374468, “Characterization of highly active 2-keto-3-deoxy-L-arabinonate and 2-keto-3-deoxy-D-xylonate dehydratases in terms of the biotransformation of hemicellulose sugars to chemicals” (Applied Microbiology and Biotechnology, 2020):
Each block holds one molecule with its values, some of them ahead of it.

Assays:
PpD-KdpD = biological target: T1, PpD-KdpD (Pseudomonas putida, UniProt Q88J13); assay: coupled assay with PpKGSADH, NADH at […] nm; format: biochemical; conditions: read-out: I50
T1 construct: gene PP_2836; C-terminal His6 tag (kept), pET vector, E. coli BL21(DE3), HisTrap purified
T1 sequence (Q88J13 1-405): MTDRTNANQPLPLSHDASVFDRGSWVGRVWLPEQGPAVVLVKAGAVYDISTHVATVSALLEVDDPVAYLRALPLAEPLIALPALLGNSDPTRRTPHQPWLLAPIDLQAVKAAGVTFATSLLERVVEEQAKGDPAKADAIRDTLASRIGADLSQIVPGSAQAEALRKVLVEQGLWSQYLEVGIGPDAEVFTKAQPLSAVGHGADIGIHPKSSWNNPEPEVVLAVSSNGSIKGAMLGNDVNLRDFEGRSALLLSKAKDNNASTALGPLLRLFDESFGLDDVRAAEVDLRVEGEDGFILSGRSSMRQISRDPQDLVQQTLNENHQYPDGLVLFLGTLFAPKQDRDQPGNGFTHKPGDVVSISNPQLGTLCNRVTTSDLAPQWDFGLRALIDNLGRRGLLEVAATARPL

purified protein = substrate: O=C(O)C(=O)C[C@@H](O)CO; assay: purified protein; format: biochemical, Variovorax paradoxus; conditions: 2 mM NAD+ for coupling enzyme, 5 mM MgCl2, 50 mM HEPES pH 7.5, 25 °C

IC50 (PpD-KdpD): 75 mM
Molecule: O=C(O)[C@H](O)[C@@H](O)[C@H](O)CO [D-xylonate]

B1: VpL-KdpD (Variovorax paradoxus EPS) (protein)
chain: MPKPMNHNLSNPRYRGIFPVVPTTFTEQGALDLESQKRCVDFMIDAGSDGLCILANFSEQFVLSDEEREVLTRTMLEHVKGRVPVIVTTTHYSTKVCAERSRRAQDMGAAMLMVMPPYHGATFRVPEPQIFEFYAGLSDAVSIPIMIQDAPASGTVLSAPFLARMAKEIEHVAYFKIETANAAAKLRELIRLGGDAIEGPWDGEEAITLMPDLDAGATGSMTGGGYPDGIRPIIEAHRAGDRDKAFALYQQWLPLINYENRQAGLLACKSLMKEGGVIACEAPRHPLPAMHPATRAGLIETAKRLDPLVLRWGK
notes: N-terminal His6 tag (kept), pET vector, E. coli BL21(DE3), HisTrap purified
Km (purified protein): 150 ± 10 µM
kcat (purified protein): 21.8 ± 0.2 s⁻¹
kcat/Km (purified protein): 146000 ± 200 M⁻¹ s⁻¹
